# Assay: label from the status in PepcDB records
# 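Also: failed if final PepcDB status was selected cloned or expressed and not failed if soluble or beyond.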
row,Sequence,protein production
1,MITVVKRNGRIEPLDITKIQKYTKDATDNLEGVSQSELEVDARLQFRDKITTEEIQQTLIKTAVDKIDIDTPNWSFVASRLFLYDLYHKVSGFTGYRHLKEYFENAEEKGRILKGFKEKFDLEFLNSQIKPERDFQFNYLGIKTLYDRYLLKDANNNPIELPQHMFMSIAMFLAQNEQEPNKIALEFYEVLSKFEAMCATPTLANARTTKHQLSSCYIGSTPDNIEGIFDSYKEMALLSKYGGGIGWDFSLVRSIGSYIDGHKNASAGTIPFLKIANDVAIAVDQLGTRKGAIAVYLEIWHIDVMEFIDLRKNSGDERRRAHDLFPALWVCDLFLKRVLEDAMWTLFDPYECKDLTELYGQDFEKRYLEYEKDPKIIKEYINAKDLWKKILMNYFEAGLPFLAFKDNANRCNPNAHAGIIRSSNLCTEIFQNTAPNHYYMQIEYTDGTIEFFEEKELVTTDSNITKCANKLTSTDILKGKPIYIATKVAKDGQTAVCNLASINLSKINTEEDIKRVVPIMVRLLDNVIDLNFYPNRKVKATNLQNRAIGLGVMGEAQMLAEHQIAWGSKEHLEKIDALMEQISYHAIDTSANLAKEKGVYKDFENSEWSKGIFPIDKANNEALKLTEKGLFNHACDWQGLREKVKANGMRNGYLMAIAPTSSISILVGTTQTIEPIYKKKWFEENLSGLIPVVVPNLNVETWNFYTSAYDIDAKDLIKAAAVRQKWIDQGQSLNVFLRIENASGKTLHDIYTLAWKLGLKSTYYLRSESPSIDEKSVLDRSVECFNCQ,failed
2,MIVASSAAYRLHQGDALRLLCGIDSASVDAVITDPPYCSGAMRMADRFKPTKRKYINNGTKHVAPDFDCDFRDHRGFLAWSSQWLSECRRVTRPGGVLLVFTDWRMLPTLTDAVQSAGWAWQGIVVWDKTPACRPQLGRFRSQAEFIVWASCGLMNPKAHPVTPVGVFATGTAPREKRHQVGKPLALMEHLVKIVPPASTVLDPFAGSGTTGVAALRAGHRFIGMELSPWYCDVTKQRLADST,failed
3,MIVEKVLIVDPIDGEFTGDVEIEEGKIVKVEKRECIPRGVLMPGFVDPHIHGVVGADTMNCDFSEMEEFLYSQGVTTFLATTVSTSLEKMKEILRKARDYILENPSTSLLGVHLEGPYISKEKKGAHSEKHIRPPSERELSEIDSPAKMLTFAPEIESSELLLRLVKRDIVLSAGHSIATFEEFMKFYKEGVKRITHFPNGLKPLHHREIGITGAGLLLDDVKLELICDGVHLSREMVKLVYKVKKANGIVLVTDSISAAGLKDGTTTLGDLVVKVKDGVPRLEDGTLAGSTLFFSQAVKNFRKFTGCSITELAKVSSYNSCVELGLDDRGRIAEGTRADLVLLDEDLNVVMTIKEGEVVFRSR,not failed
4,MIVNEPVPDTFEDTPAKDRDPDWFKRAVFYEVLVRSFQDSNGDGIGDLKGLTAKLDYLQWLGVDCLWLPPFFKSPLRDGGYDVSDYTAVLPEFGDLADFVEFVDAAHQRGMRVIIDFVMNHTSDQHPWFQESRRNPDGPYGDYYVWADDDKQFQDARIIFVDTEASNWTYDPVRKQYYWHRFFSHQPDLNYENPVVQEEMISALKFWLDLGIDGFRLDAVPYLYQEEGTNCENLPRTHDFLKRVRKEIDAQYPDTVVLAEANQWPEDVVDYFGDYAAGGDECHMAFHFPVMPRIFMAVRRESRYPVSEILAKTPAIPSGCQWGIFLRNHDELTLEMVTDEERDYMYAEYAKDPRMRANIGIRRRLAPLLDNDRNQIELFTALLLSLPGSPILYYGDEIGMGDNIWLGDRDAVRTPMQWTPDRNAGFSSSDPGRLFLPTIMDPVHGYQVTNVEASMASPSSLLHWTRRMIEIRKQNVAFGLGTYTELPSSNPAVLAFLREHEDDLVLCVHNFSRFAQPTELDLSAFDGRHPVELFGGVRFPAVGDLPYLLTLGGHGFYWFRLRKDAA,failed
5,MIVRSKPNLISVLISLKGSIAKRIALRSLLVTLLASAIVLIETLHPAYFSKVNATPFTLLGLSLSIFMSFRNNACYDRWYEARKALGTVVTEVRSMIRETQVLEDTRARSAILRDLCGFAHALKARLRREDELSAAETWLSQLPPASTSNLPDSLLRQIARQCSDQAQAGRLSEWRYLLLANQLAAITGAQSTCERIKATPLPFPYTLLLHRTSYMFCILLPFAMAEPLGWLTPIFTAIVSYTFFGLDAIGDELEDPFGHDENDLPLSAIVRNIEREILEALGATELPPALEPVDYVLS,failed
6,MIVTLLGTGDSPGTPILNCHCRTCEDARRKGWERKRFSVMVQNNGKTVLIDTSPDLRRQLLDCGVEKVDAVIWTHCHFDHFGGFGEFYRVQNNVKVYSTPQIHEDIGHFMKFMSYKPVEVEAFENFTIAGMDFTLLPVNHPPVSAVGVKVEWKGYKVVVSGDTNVRIPEATLREMQNPDLLIVEALAPTGRFRKHMNAKEALELAKRLNAGKVVLTHLGHFFPPHHLAIKSYPVGEDYQSFSFGEGRLDEFFGDLEHHHHHH,failed
7,MIWLQLVVVLAAIFVGARLGGIGLGVMGGLGLGVLTFVFHLQPTSPPIDVLLMIAAVVTAAGVLQAAGGLDYLVSVAERILRSNPDRITFLGPLVTYVFTLFAGTGHVAYSVLPVISEVARETGVRPERPMSISVIASQQAITASPISAATVALLGMLSTGAAGAAFHIELIDILKVCIPSTLLGVLAAAFVANRMGKDLEEDPEYQDRVARGLAAPTGRQALAAADGGEPVRAAAPVTAKIAVGIFLAAALAVVLFGSFPGMRPQWTTASGVTKLGMPHAIEMVMLSAAALMLMVCRVDVSKVATGSVFGAGVQAVIAIFGIAWMGDTFFAGNMEVLGGSIKGMVTAAPWLFAAALFALSVLLYSQAATVRALMPLGIALGIPAPALMAMFPAVNGYFFIPNYPTIVAAINFDRTGTTRIGRWVLNHSFMVPGLISTVVAIATGLVIVRFMF,failed
8,MIWSLLKIYVLMLCTISTVYNTFLLIVCVVGCCVQMEEIVFETKDAVDWSYRSEGVVNLVLAYSGSSPTFLGKVMRIKKLRNTRNENRDRSGSCLTTQEKLIWGEIKDLVSCQNKEIVDYLFVKHVMKPLLGHKYVTPGICLPVEKEFLESVKKIVTSQRHSWRANTLSVDTNRSFALLMDDLTIFSHGQVEDHKPCLTVEIKPKCGFLSSSSFIAEENVIKKSISRFEMYQVLKLRENQISQISEYDPLDLFSGSKDRIHKAIKALYSTPQNSLQVFLNGSLVFGGFRGGICKTTSKLELAFEHTLKDFFKTEDDCGLRANAFIELVAETVYASGALDQLLEVQKLDKYNIEGAIHAYYDLVDQPCKACQELESSKLSNQFGSMHSLPQDEKVNILKDFLISSTAIDCSVMISFRPIETGLSRSSSHGNIQLESTKQEFEYKIHFIDLDMRPLKRMEAYHESDKKITKTYQEMLKKKKGDQPRRF,failed
9,MIYDFCVIGGGIVGLATAMRLLEVYPGCSLVLMEKELSLAQHQTGHNSGVIHAGVYYAPGSFKAKLCARGAELTKSFCTEHSIPYEVCGKLVVASNKDSLARLGSLEERAKQNGLATERLDALELRRREPNVAGEGALFVKSSGIVDYGVVSNSMANVIIQSGGQILLGQTVVSIEEHGNHVNIASEGSSLSAKKLVVCAGLQSDRLATLAGLKLDCQIVPFRGEYYRLSSHLDYSVKHLIYPVPEVGLPFLGIHITRMINGGVTVGPN,failed
10,MIYDLHSHSTASDGMLTPTELILRAVEQKVDVLALTDHDTLAGIQEAKIAAESQPIQLISGVEISALWQNKNIHLTALDIDEHHPALIELLQHHAVLREQRAVEIGEKLAKAGIPNAYHGAKMLANGEVTRAHYARFLVQQDYVRNIEHAFKKYLGTGKIAYVKPQWSSISHVIDVTHQAGGVICLAHPLRYKMTARWLRALIEHFKQAGGDGIEVASCGQRPDQRQLIARWASEFDLYASVGSDFHYPTGWIELGKSLTLPTTCKPIWQLFTTQ,failed
11,MIYRFTIISDEVDDFVREIQIDPEATFFDLHEAILKAANYTNDQMTSFFICDDDWEKEKEITLEEMDNNPEMDSWIMKETRLNELIEDEKQKLLYVFDYMTERCFFIELSEIITGKEIKGAKCTKKSGEAPKQTVDFEEMAAGGGSLDLDENFYGDQDFDMEDFDAEGFDVNDGAAGGGSSYDEDKFLEHHHHHH,not failed
12,MIYRKATEKDIAQLVELRKKQLEDEGIAPINNIDTELTHFFELSFKKNSFISWISEEDNEIIATSGVCFYKYPPSYLNPSGKVAYITNMYTKYEYRSRGIALALLKLVILEAKKRDYLFLRLHASDMGRPIYEEIGFKPFDDFMEMNLSLNRNGELEHHHHHH,not failed
13,MIYWGMGMLVIAWLADGGISRLSDLIKEPLALGVLLFCGVWVLGLLWSDSAVIFQGKWRKYFILLTFIPLFSLLSRERLPWVTGALLCSYLGMVILGSYQWAMQEMQGISLLGMSYLHYSAALGIGVILAVFLGWETLSREKRWLSVLSWLIAILLLFLQFNQSARGILLATLMALLLMIVLRYRAEWRMLTGGLTAIMAMVILFATSSDIFHDRLQQAGTDLRSFQQGDYQTSVGYRLAMWDVGLHGIAEHPLLGHGSGMAKKYFDDSIITYKQGIYRNLPEFQETAHFHNELIEIGMHLGLLGILAFVFLLWCWFQIFRQNRMALLGSAIVCFICISGLTDTFLLYSGTPPFLLTVTAIAVCWRKYREDPDRIGQKYTSGERNGNQNPQMFLMSA,failed
14,MKAESSNESFIIGQRVHSLNDSRRVGTVKYVGDVEGYSGTWIGVDWDQDGDGKHNGSVNGVFYFNGRSQSSASFVRSQNLSRGITLLQALELRYRTISTKDEEDEMYVLSAGNRRVSIQLLGGDKIQDKLSRFEELTSASLSYLGVSSLGVSSDLGSILPNLKLLDLTGNLISDWEEIGALCEQLPALTTLNLSCNSLSSDIKSLPQLKNIRVLVLNNSGLSWTQVEILRRSLPGIEELHLMGNMISTITSTSSSDDQAFNSLRLLNLDDNCISDWSEVLKLSQLPCLEQLYLNKNKLSRIFQSVNGTESSEKGSDPFPSLSCLLLGANNIGDLASVDALNGFPQLVDIRLSENPISDPVRGGVPRFVLVARLTKVQVLNGSEVRAREKKDSEIRYVRMVMSKLNDKSGEIELLHPRFYELKKLHGIEDERASAENSGPKNIASGLISITLKCVGPSMGEKPHLTKKLPGSITVGKLKILSENFFKLKSIKPRLFLQEEGSPFPTALDDETATLLDVGICDGSTLLVDEES,failed
15,MKAGLIMRHDVMSILHAFCMIAENHSFTRAAAQLHISTSALSQNMRQLEDELGVKLLNRTTRRVGLTEAGHAFLASIRPALAHIDEAMEHARQSRDIPGGTLRLTVPRTAATLLLQPNLAGFMRDYPDIRLDIDVNDGFVDLINERFDAGIRFGDAVQLDMNVVPLGDVLRPAIVASPAYLARFGTPLHPQELINHRCLCHRFTRESGLYRWEFVHGAQRLEITPEAALMVNDKALRLSAARDGAGLTYVFEQDVHEDLQDGRLCSVLEEWLPAADRFYLYYPGRAHMAPKLRVFIDYFCHKAILPSQQSHHR,failed
16,MKALMVFMTTAENGSFSDAARKLGVSPAAISQSIARLEQELEVRLFNRTTRQLTLTEDGRRFYAQCRGPVNNLDSAINQLKASRDEPAGHLRVSMPNSFGRRFILPIMGEFCERYPKVRVFFGLDDHFSDLIEDGYDVGVRTGMMPDSRMVARNLAQMPLYVVASPEYWDQHGRPSSPEELSGYDCINFQFPTSGRLFKWEFDRKGERIPLEVNGTYTLNDMEAVAELARLGMGVAQLPGHEVVHLIRSGELEPVLTDMVSLERSIYICFPHRDHIAPRTRVFVDFVVEKLADHPDIMADLPGLDLSAKRSALQQSVGVL,failed
17,MKANFGYITPVPLNMELIDISLSKTQKRTPTVIHPQYNIVKIRMFYMRKVKHAGNEFASRLGTILTDFPRIEDIHPFYGDLINVLYDRDHYKLALGHVNAAKNGIEKVSKEFVKLLKFADSLYRCKQLKRAALGRMASAAKKLGKTLEYLEEVRMHMSRLPSIDLSGRTLLVCGFPNVGKSSFVRKISRADVEVQPYPFTTKSLYVGHFDYKYLQWQVIDTPGILDQPLENRNTIEMLSITALAHIKAVVLYFIDLSETCGYSVEEQMDLFNTLNPLLSSNMVIVLSKSDVLGLSGMEDKKAIMSFLEGKKYMEMSCEKEENIDAVKAMACDLLLDERFERKINSERLSEYINRITIVRPKELREKAESFICSREVTEIENEQERYLIPEEYRYDIVPEIVDGKNVADFFDPDIEKKLKEVEEEEEGLLPMYCKTYDVLSPEERALKEEVVAGIERRRIINRLREKKRLPDSWKHRSRNSGGDIAVHVRRDSKTQVAQPPRLPSKKKARFDDKHYYDRKPKHLYRGRK,failed

# Source: a protein production outcome set (Wang et al. 2014)
